From the NTF2 design screens of Basanta et al. (2020)

Assay: protease stability score; higher = more stable; yeast display proteolysis, trypsin and chymotrypsin;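 note: relative to predicted unfolded state with 0 unfolded-like and 1 meaning tenfold more protease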
“DEHHERARKVAHLFMRIFETGDEDSMNELLDPNVRWVLIYGDKRFELHGWEELDKDIRRYDHHRLEMKHVEIQGNKADNDTRLRLRFDGKDIETETRLHIRVVDGVMKEVTFDIH” gave a protease stability score of 0.364.
For “DEEEHRVENMYHRWLHLWETGNEERLTELLDPNTRIVVGDKQIHGREEAHRVLQEFLKRADHIEEFRIHHLRVVGNKVESDTRLRGEIDGRDIDTRVHVHLLVIDGRLREINIQLE”, the protease stability score was 1.57.
“DESTENLREFIRVLLHLWETGNEDEFLRMADPNALVYDEHEYDHGWKAWKKLLEQYDVVTSIIPRHIRLIGDKVDIHTNLYMLINGRTVEVHTELLVKKIDGQWRIKFFLIR” gave a protease stability score of 1.63.
Work on “SQDERDVKKFVDLYERTVETGNEEDMERLMDPHVRMEVGDKHEHGRHIVIRVLHELGADHVDIHHVNVQGEKIHIHGRLHVDGRIHHVEIHAKKVNGKWIMKLVIIR” yielded a protease stability score of 1.11.
With “SEEEKETRKNLHEFLESIITGDEDHLVNMMDPHARIEVGDWELVGRHKFHEFASKVKNLKLHIRNTEVYGDKVHIDSEINFNGQRRDMVVHAEKINGKWILKHTRYQ” the protease stability score was 1.17.
“DELNELNKEAFETYHQISETGNETMHSRNADPHVRIDINGVEYHGWEHAERLWKNLGVKHIQFHDIEIQGNKLIITVIVEVNGQETRSEVILLKINGRWLIHSLSFR” showed a protease stability score of 1.06.
Work on “SKEEHDAKYIAMLVVENLLTGDWERLFRYLDPHARMEFKVGDKHIETHGWKEIKETLDELITEWRTDDMKVRDIKVYGDKVDVEGEMRGDINGRIRTIEVRIEVIVVNGRLKDISFEVK” yielded a protease stability score of 1.95.
With “DEIEHLVHWAVEVYRHVLETGNESDLFRLFDPHVKLDVNGKEIVGREDVIEFISREIKQFDHVKLRIHRIDFQGDFVEVEGRLIVRQGDKEIRHDVRIYAEKIDGQWNVKSLSFR” the protease stability score was 2.48.
For “DENEHIAREFLRQFLRQVETGDEYRLMELMDPNARINFDGKDLHGRDEWIRKIREIRFDQTHIHDVRIQGNKMEVDTRWDGEINGVRTIFDVHMDIRKVDGKWIIKVINIH”, the protease stability score was 1.66.
“DEHHETLKRMTDQTLHVIHTGDEETWNQLADPNTLIRIIFENREINIHGWHLVVRWLQHLHRELRIEIDIRDIEIQGNKVHVEGELHVHQGEKEINIRIIFHFIVVNGRLRDVTIDFR” gave a protease stability score of 1.3.
“SEHEEEVKHFIELIVHFLKTGDEDHLAKMADPHVRLHIGDKEFHGREDFSKWVHLLLHHWRLKTFILRRVHVQGEKAHIDGQLDFDVDGKKTLLDVHLTVRKIDGRWFIETVIDG” showed a protease stability score of 2.35.
“SEDMERAESFHREWLEFSRTGDEDTLRSLLDPNARLRYGDKEYHGMDSLSRVDRELRVHDSRVHDLRIIDGRVHMDVDLDGTYNGKRVLLHTHFVVEKIDGRWILRSVHIH” showed a protease stability score of 0.643.
For “SEEKELLEKISELLLKLLKTGDEETWNKLADPNMRLNVNGKDVHGWHKMIKLRHEVWEKLGIDHLEVKTIDIINGRVRIESRLVVNGRFIHIELEFHVINGRNEEEHLFVR”, the protease stability score was 0.418.
With “DEEDRHLEEFIRLWLHFFFTGDWEFHMKNADPNVKLDAENRSVHGRDDASRTLVEIVRRLGIDHVELKDSHVIDGVIELHLELKIGDKRRTMHIHINIFNGRIRSVRIHFS” the protease stability score was 1.28.
With “SEEEELFRKLVNLFLRDVLTGDEESLIELMDPDVRVDINGRKNVGWEEVANTWKQMRIRDFEYREVEYYNGQARIHGVRDGNINGVDERTEIEISMSIVDGRLKHVRVHVR” the protease stability score was 2.09.
Work on “SEHEHSSRIAIELLLKTLKTGDERKIEENFDPNVRLIFEGRHIVGREEVFQHIHHLAHELRIEDMKIRRVEHVNGRIHIDLHVVIEINGQRIETDSHMVILKIDGKWKIELLEWR” yielded a protease stability score of 1.61.
“SEYEEESRIAYELFLETVRTGDEDTSREQADPNVRVDVNGVHLHGRELWAEFVSKYKGMQLDLHHVEIQGNKVTNDGTLTVNGVRRKVHLRINKVNGKWILESVHIH” gave a protease stability score of 1.32.
With “DEIEEVFREYTERIVDMWKTGDEELTNRNMDPNARMRIDVNGRDLELHGRERWIEHFRELGIKYEEIRDVRLRLVGDKANLEIDGEVDVNGQKHHTSLIIHVEKINGKWVISRIIFFIR” the protease stability score was 1.2.
For “DEHEESVIWLLDVMFDAWRTGDEERVRRYLDPNVRIEVDGVSIHGRERVVEHLRRIDHLSVERVEIHHSTVINGVARTDGHVLLEFNIGDKHFRIERKSDSIVEKIDGRWIVHELTYR”, the protease stability score was 0.202.
Sequence “NEIEEIVERLWRLYIQNRLTGDEDQMSRLADPHTRVHIHIGDKHIDIHGMENTARLTTKLRREIRMEIEIHHVTVQGNKLHAEVRLILHIGDKILESDTRIINIFVDGKLRTVHIHIE” has a protease stability score of 1.32.
In the case of “DEEEEHAEHMLRLWFHILHTGDWEDLVRLIDPNARLRVGDKTFHGMERLVRRHLEHKRRLGLDNFDFQVDNFEVYGDKIDIDVTENINGREYKVIIHIIVINGRVKNMHIKIN”, the protease stability score is reported as 0.925.
For “DDVHEDATRAIKILKHNLETGDEDKLMTMMDPNVRFEDGNKHAHGREQTVQVLLEIIEKLGVSKFSHEIKDLKIVDGKLHLHGTLKVDGKTVDLEVVSLKINGRWLIKSIHLH”, the protease stability score was 1.19.
With “SQEERTHRELLRLLLESLTTGDEDTLRHLMDPHMIIRIGDKHFHGWDWIVHLFRKLGADHMEVEIRDEDIIDGRIRHHGSLHIHVDGRTEHIETILFVEKVNGRWVIRSVEFR” the protease stability score was 1.64.
“SDEEESFFTMLELFVEYLHTGDEHEFKKLADPHVRSLYDGVELHGREWFIRKFREMRVKSLHFHHSDIHIINGRARARIDVRLDGEVNGVEDLTETEIRLEVHKVDGQWVFHSVEIHRK” gave a protease stability score of 1.33.
“DEHNKLAILIVEILWHLWETGNEEELVKLADPNYKHDVNGKISVGREEFEKTTHYLLNHLRFKHRHVRDEKVQGNKFHVDGQLNIDVNGREVRFDLRVVYIIVNGRLRSEHIDIV” showed a protease stability score of 1.71.
